Measurements taken from paper PMC7418988, “IgaA negatively regulates the Rcs Phosphorelay via contact with the RcsD Phosphotransfer Protein” (PLoS Genetics, 2020).

B1: IgaA fused to the T18 or the T25 fragment of adenylate cyclase (natural protein, E. coli, UniProt P45800 1-711, looked up)
chain: MSTIVIFLAALLACSLLAGWLIKVRSRRRQLPWTNAFADAQTRKLTPEERSAVENYLESLTQVLQVPGPTGASAAPISLALNAESNNVMMLTHAITRYGISTDDPNKWRYYLDSVEVHLPPFWEQYINDENTVELIHTDSLPLVISLNGHTLQEYMQETRSYALQPVPSTQASIRGEESEQIELLNIRKETHEEYALSRPRGLREALLIVASFLMFFFCLITPDVFVPWLAGGALLLLGAGLWGLFAPPAKSSLREIHCLRGTPRRWGLFGENDQEQINNISLGIIDLVYPAHWQPYIAQDLGQQTDIDIYLDRHVVRQGRYLSLHDEVKNFPLQHWLRSTIIAAGSLLVLFMLLFWIPLDMPLKFTLSWMKGAQTIEATSVKQLADAGVRVGDTLRISGTGMCNIRTSGTWSAKTNSPFLPFDCSQIIWNDARSLPLPESELVNKATALTEAVNRQLHPKPEDESRVSASLRSAIQKSGMVLLDDFGDIVLKTADLCSAKDDCVRLKNALVNLGNSKDWDALVKRANAGKLDGVNVLLRPVSAESLDNLVATSTAPFITHETARAAQSLNSPAPGGFLIVSDEGSDFVDQPWPSASLYDYPPQEQWNAFQKLAQMLMHTPFNAEGIVTKIFTDANGTQHIGLHPIPDRSGLWRYLSTTLLLLTMLGSAIYNGVQAWRRYQRHRTRMMEIQAYYESCLNPQLITPSESLIE
notes: IgaA (E. coli homolog, gene yrfF), five-pass inner membrane protein; Two fusions of the same protein, each chain with ONE of the two tags: T18 (pEAW1) or T25 (pEAW2); also called YrfF; IgaA-T18; source: bacterial two-hybrid (BACTH) fusion, expressed from a plasmid in E. coli BTH101; not shown: T18 fragment of Bordetella adenylate cyclase (Cya), C-terminal, kept; T25 fragment of Bordetella …
B2: RcsD fused to the T25 or the T18 fragment of adenylate cyclase (natural protein, E. coli, UniProt P39838 1-890, looked up)
chain: MRQKETTATTRFSLLPGSITRFFLLLIIVLLVTMGVMVQSAVNAWLKDKSYQIVDITHAIQKRVDNWRYVTWQIYDNIAATTSPSSGEGLQETRLKQDVYYLEKPRRKTEALIFGSHDNSTLEMTQRMSTYLDTLWGAENVPWSMYYLNGQDNSLVLISTLPLKDLTSGFKESTVSDIVDSRRAEMLQQANALDERESFSNMRRLAWQNGHYFTLRTTFNQPGHLATVVAFDLPINDLIPPGMPLDSFRLEPDATATGNNDNEKEGTDSVSIHFNSTKIEISSALNSTDMRLVWQVPYGTLLLDTLQNILLPLLLNIGLLALALFGYTTFRHFSSRSTENVPSTAVNNELRILRAINEEIVSLLPLGLLVHDQESNRTVISNKIADHLLPHLNLQNITTMAEQHQGIIQATINNELYEIRMFRSQVAPRTQIFIIRDQDREVLVNKKLKQAQRLYEKNQQGRMIFMKNIGDALKEPAQSLAESAAKLNAPESKQLANQADVLVRLVDEIQLANMLADDSWKSETVLFSVQDLIDEVVPSVLPAIKRKGLQLLINNHLKAHDMRRGDRDALRRILLLLMQYAVTSTQLGKITLEVDQDESSEDRLTFRILDTGEGVSIHEMDNLHFPFINQTQNDRYGKADPLAFWLSDQLARKLGGHLNIKTRDGLGTRYSVHIKMLAADPEVEEEEERLLDDVCVMVDVTSAEIRNIVTRQLENWGATCITPDERLISQDYDIFLTDNPSNLTASGLLLSDDESGVREIGPGQLCVNFNMSNAMQEAVLQLIEVQLAQEEVTESPLGGDENAQLHASGYYALFVDTVPDDVKRLYTEAATSDFAALAQTAHRLKGVFAMLNLVPGKQLCETLEHLIREKDVPGIEKYISDIDSYVKSLL
notes: RcsD, phosphotransfer protein of the Rcs phosphorelay, inner membrane protein, 890 aa; Two fusions of the same protein, each chain with ONE of the two tags: T25 (pEAW8) or T18 (pEAW7); also called RcsD-T25; RcsD-T18; source: bacterial two-hybrid (BACTH) fusion, expressed from a plasmid in E. coli BTH101; not shown: T25 fragment of Bordetella adenylate cyclase (Cya), C-terminal, kept; T18 fragment …

Experiments:
[1] = target: B2; test: two-hybrid; bacterial adenylate cyclase two-hybrid (BACTH): T18 and T25 fragments fused C-terminally to the two proteins, two plasmids in cyaA deficient E. coli BTH101; beta-galactosidase activity (Miller units) against fusion plus empty cognate vector as background; threshold for reliable interaction 4x over background; IgaA/RcsD also tested in rcsB, rcsC, rcsF and rcsD mutant hosts; in the rows the T25 fusion is …; settings: partners not purified
[2] = target: B1; test: as above; settings: partners not purified

| beta-galactosidase activity [1] | beta-galactosidase activity, fold over either fusion paired with an empty cognate vector [1] | beta-galactosidase activity, fold over either fusion paired with an empty cognate vector [2] | beta-galactosidase level, fold over the single construct (background) controls [2] | Binder |
| --- | --- | --- | --- | --- |
| ≥ 1000 Miller units | ~20 fold | – | – | B1 |
| – | – | ~20 fold | > 30 fold | B2 |
